The data set is described as follows: label from the status in PepcDB records.

Consider “MSYEDWAGGIRCSECGREYTGIECPICRQADPTEREVVTEHGNGRGDQQPPENGTVSADSGVYDIDKIEHERHTDAEKVNPEVVDPSDYVTRAVSGVVFNKRHAWKAENRADEDNPPSLFVVTTADSEFNWIEIPLWDDAEGAMEDISIGDPIQAEGKLSKDNGVHNIHVHSQDSIDILTEPPEVKFDSMAIDQITSTTPKVDLEGTVERVGEIKDIQLDDEKVKLREIHVSDLNNDQIQVALWRTNAYEKVAPGDEIIIAGGLAKPHNEKVVVRVGWSGHIGYRSSLEHHHHHH”, for which the protein production entry is given as “failed”.

On to “MSYERPLLAPLRAALSRPTPVVHVLIGPRQVGKTTITRQIQESIGISSIYATADSLVPLDSAWIETQWRRAVAEEAASGGPEIRVLILGSSALLMQQGLTESLAGRFFLHRCTHWGYPALEHHHHHH”, for which the protein production entry was “failed”. “MSYMGKKKKDCLFHVDGFEEWMDQFCSDSCSNFSFPNQIHIDLCETEQEYILETDVPNVTEQNVVIKKMETGLNICILHKNISLQRNIPLPTTIIYKKMLACLENGFLAIHISKNEVANKHEEKVLFQIEN”: the protein production entry is given as “failed”. The value for “MSYNLNLSHNIYKDAKLGTYYFRITYYDKSNTRKYITRKGFKQRKDAVKKCNEMMDELEGVGHLNRLPFDKLVEEYIDWYSARRKTSSVKALKTHTNNHLLPYFKSMDVFKMTTQDVMKFQNKKLKEGHSGDYLKKMHVYLVSLLNHAMKFHELKQNVASLVGNFEIESQKRLNYWTLEQFNQFYEALATQQQKLFFKLLFYSGARKGEIRALTWRDINFDDDFIHINKTDYHGEVTAPKTKSAIRDIYLPTHMMYDIKDYLIWYKENNIYKDDYVLFGTFYKAYSESTIDRWFTNALKVLDEQLPNGQNFPRIVIHELRHSHASMLVNLGASVMIIAQRLGHSDTTEVYNRYGHLYPSTQKEIVKYL” was “failed”; that for “MSYSNILVAVAVTPESQQLLAKAVSIARPVKGHISLITLASDPEMYNQLAAPMLEDLRNVMQEETQSFLDKLIQDAGYPVDKTFIAYGELSEHILEVCRKHHFDLVICGNHNHSFFSRASCSAKRVITSSEVDVLLVPLTGD” was “failed”; that for “MSYVDISYYKDNFKGDILNDDTLENRLERASDQIDKLTYNRIIGVEFKNLSPFQQDKIKKAVCLQAEFIEQYGEFINMPLSGFSAGSTSVSFNGSIVNGITTTQEVINYIYQTGLNSRRILEHHHHHH” was “failed”.

For the sequence “MSYVPPHKRLENVALRASSVPPSLLKKHNKNVGSTNTKIIYANGYISRWFLVGSDPEDSNFQLVPGSSEWRKDAEEKSLVILAKSDLGKLENPWLWVTEKVEDDIIMGFDRAKKTLLGYGGSEDVKLRLIARFGTLRDGPLTKSTLEKLKKMFRTNVPKSYVENVGYRAVHKMGFCVEETKELYHVKVSDNTRPDVTISCKCMAELNALRHLNLDVSCLDQDLDMRLMVDSKRTLTNLSENEITNLKELTDSAVVDPTVKGGLKWPLGKSSCADRYIVCGVWHTVTTTYINQTMRLQIREADRYDFRTGVGGTSSEVNFKLKALSTILLKEEDVERKCVSDMLKDCLKAVWEYFLKEV”, the protein production result is “failed”.

For the sequence “MTAAEPYTVELAADVHAYVQPDGGWCLNNAGFVSDGTTTLLVDTAATERRTRALSAAIAAAGVPAPRFVVNTHHHGDHTYGNSHFAPTATIVSHAECRRETLANGRQLHLLWPENDFGDIRIQAADLTYTGHTTVHVGAVDAEVIHPGVAHTVSDSVVWLPHRRVLFTGDLVFEGGTPFILMGSLSGSLRALDVLRQLGAETVVPGHGPVTDPSAFDRTERYLRFVADIAHKSHAAGRTPLEAARETDLGEFAALPESERFVANLHRAYAELDGAPEGAPLDVPAAVRDIAAMNGGRMVACHA”, the protein production entry is “failed”. As to “MTAAQDGRIITFYSYKGGTGRTMALANTAWILAANGKRVLAVDWDLEAPGLDRFFRPFLDPHALAATSGIIDIINEYAWAATSGSQRSGAWHQEYAHVEQHAVSLTPERHGLRFAKGGSLDFLSAGRQDRSYSATVSSFEWDNFYERLGGGLFLDALRDDMKASYEYVLIDSRTGLSDNADICTIQMPDMLVDCFTLSDQSLDGAAAVARSVEDGYRKRKIRVLPVPMRIDEGEKEKVDAGRALARLKFDGLPKGLGGEDLSPEELSQYWGAVEIPYRPYYAYEETLATVGDESGIANSLLSAFERLTNVISDGEVASLPPVPEPVRLRCLDAFTRRRPLTTAADVVVAYAAENRMWADWIEAVLKHSGCNVTLYDVSAGPVERPDAATRALVLLSNAFQKSRYGEDVWRAFTGGDPDGAHPALVPLRVDEVRLPDSYLAHEPVDLHRLEEAQCVAGLLSALELPAQPTDGAPAAPRFPGSTPATWNAPQRNQTFTGRNVILTQVREQLRSGMSVVLPQPQALTGLGGVGKTQVALEYVHRFMADYDLVWWTSAESVDNVVASLAELGARIGAPGGEDMALVSRETVQMLARGVPTKRWILIFDNADNPEQLTRYFPAGGGGHILVTSRNQAWATQGQSLPVDVFLRQESIEHLSRRAPGLTAHEADRVATAVGDLPLAVEQAAAWLAETATPIEDYLRQLAEQTTDVLDLNQPADYPETVAATWNISIARLKDRSPASVRLLQLCAFLAPEPISSHLLYSKEMIDELRKVDPTLQESLLLGRVIREIARFALAKVDQVSNSIQVHRLVQAVIRSQLTQEEQRHARHVVHTVLAGARPDGDEPIDDPETWPRFGVIWPHLSASDVRNCTENEPRRLLIDRVRYLWKRGDFPAAQQLAEDLLGHWKPLLGEEDVQYLYLRCQLANVMRSQGRYVESRAINTELLEQQRRVLGAAHPHTYVTMSSLASDLAALGEYTLAVELAREAHDGFSQIFHESHRRTLSAANNLALALRMVGRYGDARSLDQDTYDRRMEVLGPDHPYTLASAGRLGRDLREVGRYEDSVSLLSRAYDAHKRILGKGFPGTLSCAKSLAVSLRRTGRLEDARRLTTATRAQYRTQYDAHTPDSLACDLNMAADLYAADEREAAREVAKEALTEYMKVPGEEHPYTQAALNNLGIFHWGCGDAVEAEAVFRQVLPRMSDVLGDRHPHTLFTEANFANVLADQGRLEEAWALEKRAMDTLRTVLGPQHPETLAVVSNCALTLGALGRTDEARRLREETLAELNRQGRQLGENNGIIQLTGHERRIYRDLEPLAV”, the protein production entry is reported as “failed”. The value for “MTAAQFAALSPLVVLAIAAVAAMMLVPLARLQIVQASAAAGLAIAAALVLLRIGAPAAPMGALFTDDGPARFGIVFACLVSLGALVFLRTGHPAKEAPSLLVLVAIGAATLAGAGHAATLFLGIEILSLSLIALFAFRLTRQGLEAAYKFLVMSGLASSALLLGIALIFAETGALDFAGWGGRGALTAFGTALLLAGLAFKFSLVPFHMWTPDAFEAAPASAATLAGVVSKSAVAIVILRLALTAHLPEPVWSQGLAALGGASVLIGNLLALRQPQLPRMLGYSTIAHSGYIALIIASGTPHAGEAVLFYLAIYAPAMLGALCVSAALGRAPTLPDLHGLMKRRPLEAIALSLSLLSLAGLPAAGGFIAKLFLLRVLIDGSLWVLVGIVVAGSSLGFFYYAKFFTAPFVGHTHDESEPLPQLDRGLLIVCIALIVIFGVAPAGLMNVVAATMAP” was “failed”. The value for “MTAEETVNVKEVEIIKLILDFLNSKKLHISMLALEKESGVINGLFSDDMLFLRQLILDGQWDEVLQFIQPLECMEKFDKKRFRYIILKQKFLEALCVNNAMSAEDEPQHLEFTMQEAVQCLHALEEYCPSKDDYSKLCLLLTLPRLTNHAEFKDWNPSTARVHCFEEVCVMVAEFIPADRKLSEAGFKASNNRLFQLVMKGLLYECCVEFCQSKATGEEITESEVLLGIDLLCGNGCDDLDLSLLSWLQNLPSSVFSCAFEQKMLNIHVDKLLKPTKAAYADLLTPLISKLSPYPSSPMRRPQSADAYMTRSLNPALDGLTCGLTSHDKRISDLGNKTSPMSHSFANFHYPGVQNLSRSLLLENTECHSIYEESPERSDTPVETQQPVSIEPMCQGSGLEKEPANGAQNPVPAKQQEKNELRDSTEQFQEYYRQRLRYQQHLEQKEQQRQIYQQMLLEGGVNQEDGPDQQQNLTEQFLNRSIQKLGELNIGMDSLGNEVPVLNQQCLGSKNSGSNNSSVTSFSSPPQDSSQRLTHDTSNIHTSTPRNPGSTNHIPFLEESPCGSQNSSEHSVVKPSPGDSSGSLSRSKGEEDDKSKKQFVCINTLEDTQAVRAVAFHPSGSLYAVGSNSKTLRVCAYPEKLDTSAHDGPKQPVVRFKRNKHHKGSIYCVAWSPCGQLLATGSNDKYVKVLPFNAETCNATGPDLEFSMHDGTIRDLAFMEGPESGGAILISAGAGDCNIYTTDCQRGQGLHALSGHTGHILALYTWSGWMIASGSQDKTVRFWDLRVPSCVRVVGTTFHGTGSAVASVAVDPSGRLLATGQEDSSCMLYDIRGGRMVQSYHPHSSDVRSVRFSPGAHYLLTGSYDMKIKVTDLQGDLTKQLPLMVVGEHKDKVIQCRWHTQDLSFLSSSADRTVTLWTYSG” was “failed”; that for “MTAFILVSGMFTGTHIWQDTAARLTARGAEVHTVALTGLDAPRAAAAPGVDLETHIADVLAVIDSVGAAGDRRIVLVGHDYGIHPAVGAADRRAERVDRIVHLDSGLPRDGVPALAAVPDQSLRERLAGAAGADGVLPPPAHEEWPRWGSTAGVPDAALDRLTALAAPQPLGTLLQPLRLTGAVDPVPTTGVLCTGNGTSIELVQMLVRLGDPALRPLTDPRVSFFELPTGHWPMLSLPAELTDVLLRAAAG” was “failed”.

For the sequence “MTAGHGIAALPGTMRVFERGWLSSNNILFFDDDAHGGCALVDSGYLTHAPQTVALARHALQGRPLRRLLNTHLHADHCGGNAALQAAYGCRIRVPAAQIGDVRRWDTDALSYRPTGQQCERFTLPEGDTAEAGLADGMTARLGGLDWQVISAPGHDPHAVILYSPDTRVLLSADALWERGFGVIFPELEGESGFAEQEAILACIARLGARVVVPGHGRPFTEVDAAIDAARGRLAYLRADPERNALHALRVLVKFKLLEQQAMTREALAAWFAQASLIPRLQARFFAATPLPALLEATVAALVKAGAAAVEATRIVNRG”, the protein production result is on record as “failed”. On to “MTALAVTLKNWFFTRNSMILNANILLFIILFNTLPFEPQVVTGISILVFVAILWLTEAIHVSITALLIPMLAVFLGVFNTQAALNNFSNSIIFLFLGGFALAAALHKQKLDQALADKVLLIARGRMSVAVFMLFGVSAGLSMWISNTATAAMMLPLVLGVMTKLDAKKNHNTFLFVLLGIAYSASIGGIATLVGSPPNAIAAAEVGLNFTEWMKLGLPISLILMPIAILVLYTMTKPDLSHKFELDHKPVEWTNGKMVTLAIFLLTVTLWIFSKPINTMLGGFAKFDTLVAIGAILLLGASRAVEWKDIEKTTDWGVLILFGGGICLSNVLKATGTSVFLAHSLTGFLEQAGVLLTILSVVAFVVFLTEFASNTASAALLVPVFATIAEALGLSPVILSALIAVAASCAFMLPVATPPNAIVFGTGHIKQKEMMRIGFVLNIACIGALTLFAWLFW”, for which the protein production result is reported as “failed”. Turning to “MTAMSPEQSRAIAKKLAFWATLACLLAVVVIMLGAWTRLVHAGLGCPDWPGCYGFLTVPQDETRIAIANARFPETPVDVSKGWPEMIHRYAAGTLGLLVFGLAIASVRKRRAGLPVKLPLFIAGFIVLQAAFGMWTVTLKLWPQVVALHLLGGFTTLSLLLLLTLRLRRRARESEAPRPAMAASLARLRPWLYGGLLLVIAQIALGAWTAANYAAVACTDLPTCQGQWWPEGMDFQHGFDITQHVGPNYLGGQLTSDGRVAIHVSHRLGAVLVLGYLAILLGLLWRQRAQSGLDRAIALVGGALVLQFCLGLTNVWLHIPLIIAVAHNAMGAGLLLSMVHLIWRHHQLALPALSPAPHTTTINREVTA”, the protein production result is recorded as “failed”. Under “MTARARSALLDAEHIVGYTTYVELLPDEITEGADDIYNTPMCGEVSRTEEAIDRALAGNDVAIIGSGDPNVYALAGLALEIIESKGATATMLDFDVVPGVP” stands “failed”; under “MTASPIVVFDLDGTLIDTAPDLINALNFILVREGMPAVPMAVARNMIGQGARRLLERGLELDGRVIAQDDVNRLTVDFIDYYAAHIADESRPFEGLEATLDELSESGYRFAVCTNKLEWLSKLLLDRLGLSPRFAAICGADTFGVAKPDPAILRETVAKAGGDLSAAIMVGDAGPDVGVARRAGVPVIGVEFGYTEVPIAELQPDLLVGHMRELPNAVGRLLPR”, “not failed”.
